According to PMC6042779:

Biological target: SRC (UniProt P12931)
Experiment: bead-immobilized peptide pulldown of SRC-GST
Conditions: reference: nonphosphorylated FAK peptide; sites Y397

In the case of “FAK FERM-kinase linker region, 358-409 (from UniProt P34152) pY397 FAK peptide”, the “binding against the reference” value is reported as “gained”.
